{
  "source": "paper doi:10.1101/2023.01.09.523258",
  "target": "T1, Albumin from chicken egg (Ovalbumin/OVA) (chicken), P01012",
  "T1 chain": "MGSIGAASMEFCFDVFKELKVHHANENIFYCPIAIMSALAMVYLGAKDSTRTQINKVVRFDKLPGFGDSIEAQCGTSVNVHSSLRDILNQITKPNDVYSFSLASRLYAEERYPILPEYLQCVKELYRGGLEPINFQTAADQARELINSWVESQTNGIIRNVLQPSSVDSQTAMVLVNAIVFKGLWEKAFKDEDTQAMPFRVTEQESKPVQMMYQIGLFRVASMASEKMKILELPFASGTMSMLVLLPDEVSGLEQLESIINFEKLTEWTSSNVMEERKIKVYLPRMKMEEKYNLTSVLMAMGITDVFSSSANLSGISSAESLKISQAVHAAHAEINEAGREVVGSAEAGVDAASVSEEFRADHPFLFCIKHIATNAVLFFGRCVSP",
  "assay": "native MS",
  "conditions": "remark: other sources report otherwise",
  "data": [
    {"binder": "Albumin from chicken egg (Ovalbumin/OVA), P01012 1-386 (natural protein) MGSIGAASMEFCFDVFKELKVHHANENIFYCPIAIMSALAMVYLGAKDSTRTQINKVVRFDKLPGFGDSIEAQCGTSVNVHSSLRDILNQITKPNDVYSFSLASRLYAEERYPILPEYLQCVKELYRGGLEPINFQTAADQARELINSWVESQTNGIIRNVLQPSSVDSQTAMVLVNAIVFKGLWEKAFKDEDTQAMPFRVTEQESKPVQMMYQIGLFRVASMASEKMKILELPFASGTMSMLVLLPDEVSGLEQLESIINFEKLTEWTSSNVMEERKIKVYLPRMKMEEKYNLTSVLMAMGITDVFSSSANLSGISSAESLKISQAVHAAHAEINEAGREVVGSAEAGVDAASVSEEFRADHPFLFCIKHIATNAVLFFGRCVSP", "values": [
      {"measurement": "relative abundance of the dimer", "result": "5 to 8", "unit": "%"},
      {"measurement": "stoichiometry N", "result": 2}
    ]}
  ]
}
